The values that follow come from publication PMC7969954, “Pol α-primase dependent nuclear localization of the mammalian CST complex” (Communications Biology, 2021).

In the assay the target is T1, STN1-TEN1 complex (human, UniProt Q9H668 1-368; Q86WV5 1-123).
T1 construct: STN1, human, full length (flSTN1); TEN1, human, full length (flTEN1); source: E. coli ScarabXpress T7 lac, co-lysed, purified as a complex (Ni-NTA, amylose, HS and HQ)
T1 sequence (looked up) 1: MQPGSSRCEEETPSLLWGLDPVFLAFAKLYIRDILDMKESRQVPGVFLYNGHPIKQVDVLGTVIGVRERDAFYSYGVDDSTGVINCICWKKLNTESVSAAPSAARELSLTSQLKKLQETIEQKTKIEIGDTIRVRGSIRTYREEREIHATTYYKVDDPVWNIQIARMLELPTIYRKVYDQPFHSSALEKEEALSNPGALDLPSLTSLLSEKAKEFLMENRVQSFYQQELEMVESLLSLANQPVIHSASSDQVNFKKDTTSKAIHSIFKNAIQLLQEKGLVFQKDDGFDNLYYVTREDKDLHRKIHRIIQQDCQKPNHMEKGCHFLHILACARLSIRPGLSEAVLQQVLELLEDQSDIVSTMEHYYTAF
T1 sequence (looked up) 2: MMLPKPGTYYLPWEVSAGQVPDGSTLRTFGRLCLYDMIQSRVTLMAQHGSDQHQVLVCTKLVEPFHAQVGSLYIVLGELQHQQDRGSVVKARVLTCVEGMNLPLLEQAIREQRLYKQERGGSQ
Description: pull-down; purified STN1-TEN1 complex incubated with purified CTC1 (1002-end) at 4 °C; complex bound to an amylose column and analysed by SDS-PAGE. To be noted: both partners purified.

B1: CTC1 (1002-end) (domain or fragment, human, UniProt Q2NKJ3 1002-1217, looked up)
chain: TISIPLPHIYLAELLQGGQSPFQATASCHIVSVFSLQLFWVCAYCTSICRQGKCTRLGSTCPTQTAISQAIIRLLVEDGTAEAVVTCRNHHVAAALGLCPREWASLLDFVQVPGRVVLQFAGPGAQLESSARVDEPMTMFLWTLCTSPSVLRPIVLSFELERKPSKIVPLEPPRLQRFQCGELPFLTHVNPRLRLSCLSIRESEYSSSLGILASSC
notes: CTC1, human, residues 1002-end; also called CTC1 residues 1002-end; source: E. coli ScarabXpress T7 lac, purified (Ni-NTA, HS and HQ)
For the molecule B1, the binding result is reported as “binds”.
